Data on four molecules can be found in article PMC11167270 (Heliyon, 2024).

Series [1] deals with Sac10b2 (Sulfolobus acidocaldarius). The series can be described thus: AUC.
The series “AUC” deals with the molecule itself. Nature of the series: AUC.

Where a chain is given by its changes, count along the chain named. In names and notes the source's numbering stands.

Take Sac10b2 (natural protein): the stoichiometry N in series [1] turned out to be 2.

B1: Sac10b1 (natural protein, Sulfolobus acidocaldarius)
chain: MSSGATPSNVVLVGKKPVMNYVLAALTLLNQGVSEITIKARGRAISKAVDTVEIVRNRFLPDKIEVKEIRIGSQVVTSQDGRQSRVSTIEIGIRKKA
Take B1: the “stoichiometry N” value in the series “AUC” came out at 2.

B2: Sac10b1 F59A (natural protein, Sulfolobus acidocaldarius)
chain: B1 chain with F59A
As for B2, in “AUC”, the “stoichiometry N” value was 2.

B3: Sac10b1 R58A (natural protein, Sulfolobus acidocaldarius)
chain: B1 chain with R58A
With B3, in “AUC”, the binding result was “binds”.

The stoichiometry N is a count of units in the complex or per binding partner.
